For assay [1], the target named is T1, human B7-H4-Fc (human).
T1 construct: also called hB7-H4-Fc; hB7-H4 Fc
Put plainly: SPR (Biacore). The procedure: (§1) Surface plasmon resonance experiments were performed using a Biacore T200 instrument equipped with CM5 sensor chips. The system was equilibrated in running buffer HBS-EP pH 7.4. The ligands were immobilized using amine-coupling chemistry. The surfaces of flow cells one through four were activated for 5 min using an amine coupling kit at a flow rate of […]. The ligands (human B7-H4-Fc, human B7-H4-hism and mouse B7-H4-Fc; at a concentration of 5 μg/ml in 10 mM sodium acetate, pH 5.0) were immobilized at a density of 50-100 RU on flow cell 2, 3, 4 respectively. Flow cell 1 was left blank to serve as a reference surface. All flow cell surfaces were blocked with a 5 min injection of 1 M ethanolamine, pH 8.0. To collect kinetic binding data, the respective analyte (diluted in 1×HBS-EP buffer, pH 7.4) was injected over the four flow cells at concentrations of 100 nM to 0.1 nM at a flow rate of […] and at a temperature of 25° C. The protein complex was allowed to associate and dissociate for 180 seconds and 1000 or 1200 seconds, respectively. The surfaces were regenerated with a 30 second injection of 1.5 M NaCl/0.05 M NaOH. The data were fit to a simple 1:1 interaction model using the Langmuir fit option available within the Biaevaluaton software
(§2) The kinetics for binding of the different antibodies to their targets were examined using Biacore analysis.

Assay [2] addresses T2, mouse B7-H4-his (mouse, UniProt Q7TSP5 25-257).
T2 construct: also called mB7-H4-his; mB7-H4-His; not shown: his tag
T2 sequence: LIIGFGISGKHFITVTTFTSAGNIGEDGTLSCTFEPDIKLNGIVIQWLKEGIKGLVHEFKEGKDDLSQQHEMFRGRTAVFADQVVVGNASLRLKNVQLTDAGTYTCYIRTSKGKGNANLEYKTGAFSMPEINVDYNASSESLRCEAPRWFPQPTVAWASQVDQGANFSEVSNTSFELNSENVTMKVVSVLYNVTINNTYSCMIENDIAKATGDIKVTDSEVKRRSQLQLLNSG
Put plainly: SPR (Biacore). The protocol:
as §1, §2

Assay [3] addresses T3, human B7-H4-his (human, UniProt Q7Z7D3 25-259).
T3 construct: also called hB7-H4-his; hB7-H4 his; not shown: his tag
T3 sequence: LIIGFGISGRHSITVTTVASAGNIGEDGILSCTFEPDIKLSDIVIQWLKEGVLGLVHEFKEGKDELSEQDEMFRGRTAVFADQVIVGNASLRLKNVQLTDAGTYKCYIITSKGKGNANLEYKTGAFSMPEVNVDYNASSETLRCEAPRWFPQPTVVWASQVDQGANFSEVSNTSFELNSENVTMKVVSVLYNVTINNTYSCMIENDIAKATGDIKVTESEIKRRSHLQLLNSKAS
Put plainly: SPR (Biacore). The procedure:
as §1, §2

In assay [4] the target is T4, mB7-H4 (soluble mouse B7-H4, construct not named) (mouse, UniProt Q7TSP5 25-257, limits assumed).
T4 sequence: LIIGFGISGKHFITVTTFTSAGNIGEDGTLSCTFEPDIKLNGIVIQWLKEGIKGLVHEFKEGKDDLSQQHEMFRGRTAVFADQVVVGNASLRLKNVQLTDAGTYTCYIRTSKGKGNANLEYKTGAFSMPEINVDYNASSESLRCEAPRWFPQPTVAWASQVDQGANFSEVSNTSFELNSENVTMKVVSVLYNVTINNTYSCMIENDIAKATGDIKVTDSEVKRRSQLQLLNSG
The assay is described as follows: summary of ELISA and flow cytometry.

The target in assay [5] is T1, human B7-H4-Fc. The assay is described as follows: ELISA, coated hB7-H4-Fc. The protocol: (§3) ELISA experiments were performed to determine binding to hB7-H4-Fc (FIG. 4A), hB7-H4-his (FIG. 4B), hB7-H4 IgV domain (FIG. 4C), and mB7-H4 IgV domain (FIG. 4D). Flow cytrometry experiments were performed to determine binding to CHO cells expressing hB7-H4 (FIG. 4E) or mB7-H4 (FIG. 4F). […] A cross-reactive IgV binding antibody was used as a control.
(§4) About 1-2 μg/ml of human or mouse B7-H4-Fc (or his-tagged) was immobilized on ELISA plates (Immuno 2HB, Thermo scientific, cat #3455) at 4° C. overnight. After blocking the plates with 3% PBS+milk, serial diluted antibodies were added to the blocked plates and incubated at RT for 1-1.5 h. After washing the plates with PBS-T (0.05%), horse radish peroxidase (HRP)-conjugated antibody targeting the hFab was added to the plate. Signals were developed by adding 3,3′,5,5′-Tetramethylbenzidine (TMB (followed 1N of H₂SO₄ to stop the reaction. The OD at 450 nm was read by ELISA plate reader (Infinite M1000 from TECAN). GraphPad from Prism was used to plot OD450 vs. antibody concentration curve and to calculate the EC50 values.

Assay [6] has as its target T5, IgV domain of mouse B7-H4-Fc (mouse; human).
T5 construct: also called mB7-H4 IgV domain
The assay is described as follows: ELISA, coated mB7-H4 IgV domain. The protocol:
as §3, §4

Assay [7] deals with T6, mouse B7-H4-Fc (mouse; human).
T6 construct: also called mB7-H4-Fc; mB7-H4-hFc
The assay is described as follows: ELISA, coated mB7-H4-Fc (title on the sheet: Binding to mB7H4-Fc). The protocol:
as §3, §4

Assay [8] addresses T7, mouse B7-H4 expressed on cells (mouse, UniProt Q7TSP5 25-257).
T7 construct: also called cellular mB7-H4; mB7-H4/CT26
T7 sequence: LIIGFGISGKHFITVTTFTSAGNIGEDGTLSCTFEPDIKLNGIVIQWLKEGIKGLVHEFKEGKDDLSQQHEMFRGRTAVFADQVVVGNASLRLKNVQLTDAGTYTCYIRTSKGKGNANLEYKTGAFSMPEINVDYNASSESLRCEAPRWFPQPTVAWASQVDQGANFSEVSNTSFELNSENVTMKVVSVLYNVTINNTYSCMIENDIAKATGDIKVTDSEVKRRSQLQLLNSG
Put plainly: flow cytometry, CHO cells expressing mB7-H4. The protocol:
(§5) ELISA experiments were performed to determine binding to hB7-H4-Fc (FIG. 3A), hB7-H4-his (FIG. 3B), mB7-H4-Fc (FIG. 3C), and hB7-H4 IgV domain (FIG. 3D). Flow cytometry experiments were performed to determine binding to CHO cells expressing hB7-H4 (FIG. 3E) or mB7-H4 (FIG. 3F).
Cells were harvested, washed once, and then re-suspended to the concentration of 1×10⁶ cells/ml in ice cold FACS Buffer. 25 μl of cell suspension was added to each well of a 96-well round-bottom microliter plate. Serially diluted antibodies or fusion proteins were added to each well and incubated for 1 hour at 4° C. Cells were washed three times by centrifugation at 1500 rpm for 5 minutes, and then stained with secondary antibody (1:200 dilution) for 30 min at 4° C. in the dark. Cells were washed once, re-suspended in 100 μl PBS buffer and then analyzed using Guava Flow Cytometry EasyCyte system.

The target of assay [9] is T6, mouse B7-H4-Fc. Put plainly: ELISA, coated mB7-H4-Fc. The protocol: as §5, §4
For assay [10], the target named is T6, mouse B7-H4-Fc. Put plainly: ELISA, coated mB7-H4-Fc. The protocol: as §4
This is another data set of the same source.

Assay [11] has as its target T2, mouse B7-H4-his. The assay is described as follows: SPR (Biacore). The source holds these as a separate data set.
Assay [12] deals with T6, mouse B7-H4-Fc. Put plainly: SPR (Biacore).
In assay [13] the target is T1, human B7-H4-Fc. Put plainly: ELISA, coated hB7-H4-Fc. The protocol:
as §4
This is another data set of the same source.

Assay [14] deals with T8, IgV domain of human B7-H4-Fc (human).
T8 construct: also called hB7-H4 IgV domain
The assay is described as follows: ELISA, coated hB7-H4 IgV domain. The procedure:
as §4

Assay [15] has as its target T5, IgV domain of mouse B7-H4-Fc. Put plainly: ELISA, coated mB7-H4 IgV domain. The procedure:
as §4
The source holds these as a separate data set.

Like-named read-outs stand apart in the source and are kept apart here.

T1 sequence (chain, as listed by the source): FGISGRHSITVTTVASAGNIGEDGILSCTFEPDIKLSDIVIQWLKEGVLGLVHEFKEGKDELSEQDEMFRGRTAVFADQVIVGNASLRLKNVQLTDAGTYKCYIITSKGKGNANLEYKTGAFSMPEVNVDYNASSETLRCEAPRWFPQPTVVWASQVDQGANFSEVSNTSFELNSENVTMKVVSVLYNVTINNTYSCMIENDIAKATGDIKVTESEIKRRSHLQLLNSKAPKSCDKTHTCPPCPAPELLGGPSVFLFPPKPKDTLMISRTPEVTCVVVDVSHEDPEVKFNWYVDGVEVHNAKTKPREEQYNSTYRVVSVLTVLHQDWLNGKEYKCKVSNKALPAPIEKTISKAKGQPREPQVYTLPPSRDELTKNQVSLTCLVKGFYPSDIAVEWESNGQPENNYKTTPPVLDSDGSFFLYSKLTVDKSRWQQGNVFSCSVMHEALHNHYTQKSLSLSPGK
T6 sequence (chain, as listed by the source): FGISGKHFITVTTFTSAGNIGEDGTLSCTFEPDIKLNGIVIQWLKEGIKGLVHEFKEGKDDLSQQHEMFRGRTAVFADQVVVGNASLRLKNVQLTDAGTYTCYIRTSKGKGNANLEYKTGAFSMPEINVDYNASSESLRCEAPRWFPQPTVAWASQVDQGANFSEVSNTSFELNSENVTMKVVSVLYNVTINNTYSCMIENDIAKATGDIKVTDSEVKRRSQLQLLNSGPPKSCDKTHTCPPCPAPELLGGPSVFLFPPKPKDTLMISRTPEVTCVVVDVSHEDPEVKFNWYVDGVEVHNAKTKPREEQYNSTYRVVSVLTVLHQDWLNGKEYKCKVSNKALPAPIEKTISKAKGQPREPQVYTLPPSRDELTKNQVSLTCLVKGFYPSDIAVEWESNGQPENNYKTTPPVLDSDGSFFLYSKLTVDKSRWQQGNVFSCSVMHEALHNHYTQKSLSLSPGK
T5 sequence (chain, as listed by the source): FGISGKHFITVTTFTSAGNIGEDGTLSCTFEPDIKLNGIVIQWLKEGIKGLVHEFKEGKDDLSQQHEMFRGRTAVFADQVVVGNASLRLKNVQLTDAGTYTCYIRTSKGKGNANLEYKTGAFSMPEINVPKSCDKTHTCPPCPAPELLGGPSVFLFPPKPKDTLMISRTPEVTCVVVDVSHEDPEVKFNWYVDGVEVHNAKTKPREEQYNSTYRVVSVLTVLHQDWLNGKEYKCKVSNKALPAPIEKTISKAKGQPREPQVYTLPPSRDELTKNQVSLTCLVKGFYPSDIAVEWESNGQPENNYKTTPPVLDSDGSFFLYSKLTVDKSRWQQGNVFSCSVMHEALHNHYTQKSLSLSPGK
T8 sequence (chain, as listed by the source): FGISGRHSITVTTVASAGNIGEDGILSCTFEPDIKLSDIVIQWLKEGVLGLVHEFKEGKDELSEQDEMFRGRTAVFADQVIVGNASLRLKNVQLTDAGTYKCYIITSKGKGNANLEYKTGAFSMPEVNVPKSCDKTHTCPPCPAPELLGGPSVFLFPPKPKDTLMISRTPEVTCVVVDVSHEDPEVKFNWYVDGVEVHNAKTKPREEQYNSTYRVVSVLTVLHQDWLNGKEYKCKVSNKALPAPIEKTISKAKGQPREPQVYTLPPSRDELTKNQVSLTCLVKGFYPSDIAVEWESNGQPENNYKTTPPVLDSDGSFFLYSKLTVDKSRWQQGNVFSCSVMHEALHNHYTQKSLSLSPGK

B1: 3D1/3D1 (antibody, human IgG1, V domains shown)
VH: QVQLVQSGAEVKKPGSSVKVSCKASGYSFISYAITWVRQAPGQGLEWIGGINPIFGTAKYAQKFQGRVTITADESTSTAYMELSSLRSEDTAVYYCAKGQALIQHWGQGTLVTVSS
VL: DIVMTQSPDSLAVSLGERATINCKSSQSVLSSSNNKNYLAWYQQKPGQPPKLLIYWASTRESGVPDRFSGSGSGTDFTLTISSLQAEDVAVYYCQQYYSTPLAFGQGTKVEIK
Consider B1, for which the Kd in assay [1] was 2.23 nM; in [3] it was 28.5 nM. Further, the binding result in assay [2] is listed as “no binding”; in assay [4], “no binding”; in [6] it was “no binding”; in [7], “no binding (tested: log 0.3 ug/ml (about 2 ug/ml))”. In addition, in [5], the “EC50 (read off the curve)” value is around 0.009 µg/mL.

B2: 1F11/1F11 (antibody, human IgG1, V domains shown)
VH: QVQLVQSGAEVKKPGSSVKVSCKASGDTFTTYQIHWVRQAPGQGLEWMGGIMPIFGTTKYAQNFQGRVTITADESTSTAYMELSSLRSEDTAVYYCARRNYGMDVWGQGTTVTVSS
VL: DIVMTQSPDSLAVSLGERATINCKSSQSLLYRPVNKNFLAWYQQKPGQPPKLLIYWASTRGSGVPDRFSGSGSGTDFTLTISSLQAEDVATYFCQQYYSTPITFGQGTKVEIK
Take B2: the figures for the Kd in assay [1] and in assay [3] were 1.66 nM and 1.11 nM, respectively. Moreover, the binding result in assay [2] is given as “no binding”; in assay [4], “no binding”; in assay [8] it was “no binding (tested: axis value -7 (log scale labelled nM))”; in assay [9] it was “no binding (tested: axis value -8 (log scale labelled nM))”.

B3: 5E4/5E4 (antibody, human IgG1, V domains shown)
VH: QVQLVQSGAEVKKPGASVKVSCKASGYTFTSYDINWVRQAPGQGLEWMGWMNPNSGNTGYAQKFQGRVTMTRDTSTSTVYMELSSLRSEDTAVYYCARGELWFGEFDYYYYYGMDVWGQGTTVTVSS
VL: DIQMTQSPSSLSASVGDRVTITCRASQSISSYLNWYQQKPGKAPKLLIYGASSLQSGVPSRFSGSGSGTDFTLTISSLQPEDFATYYCQQADRIPFTFGRGTKVEIK
B3: the “EC50 (read off the curve)” value in [10] and in assay [13] was around 0.1 nM throughout. Moreover, the Kd in [1] amounted to 11.7 nM; in assay [3], 10 nM; in assay [11], 9.09 nM; in assay [12], 14.1 nM. Moreover, the binding result in [14] and in assay [15] was “no binding (tested: 20 nM)” each time.

B4: 1A12/1A12 (antibody, human IgG1, V domains shown)
VH: EVQLLESGGGLVKPGGSLRLSCAASGFTFSSYAMHWVRQAPGKGLEWVAVISYDGSNKYYADSVKGRFTISRDDSKNTLYLQMNSLKTEDTAVYYCARHGWDAFDIWGQGTLVTVSS
VL: DIQMTQSPSSLSASVGDRVTITCRASQDISNRLNWYQQKPGKAPKLLIYLASSLQGGVPSRFSGSGSGTDFTLTISSLQPEDFATYYCQQAISFPLTFGGGTKVEIK
On to B4, for which the Kd came to 3.57 nM in [1] and 2.47 nM in assay [3]. Also, the binding result was “no binding” in assay [2], “no binding” in assay [4], “no binding (tested: axis value -7 (log scale labelled nM))” in assay [8] and “no binding (tested: axis value -8 (log scale labelled nM))” in assay [9].

B5: 6C3/6C3 (antibody, human IgG1, V domains shown)
VH: EVQLLESGGGLVQPGGSLRLSCAASGFTFSSYAMHWVRQAPGKGLEWVASISGTGFTTRYADSVKGRFTISRDNSKNTLYLQMNSLRAEDTAVYYCARGGWFRDTPVDYWGQGTLVTVSS
VL: DIVMTQSPLSLPVTPGEPASISCRSSQSLLHSNGYNYLDWYLQKPGQSPQLLIYGASSLRSGVPDRFSGSGSGTDFTLKISRVEAZDVGVYYCMQASHWPPTFGQGTRLEIK
notes: The VL holds a letter Z
For the molecule B5, the Kd in [1] was found to be 10.9 nM; in [3], 6.3 nM. Moreover, the binding result is reported as “no binding” in [2]; “no binding” in [4]; “no binding (tested: axis value -7 (log scale labelled nM))” in [8]; “no binding” in assay [6]; “no binding (tested: log 0.3 ug/ml (about 2 ug/ml))” in [7]. For the same molecule, in [5], the “EC50 (read off the curve)” value was around 0.03 µg/mL.

B6: 5F4/5F4 (antibody, human IgG1, V domains shown)
VH: EVQLLESGGGLVKPGGSLRLSCAASGFTFSSYAMHWVRQAPGKGLEWVSAIGGSGRTTYYADSVKGRFTISRDDSKNTLYLQMNSLKTEDTAVYYCARERGYSYGQIDYWGQGTLVTVSS
VL: DIVMTQSPLSLPVTPGEPASISCRSSQSLLHSNGYNYLDWYLQKPGQSPQLLIYAASSLQSGVPDRFSGSGSGTDFTLKISRVEAEDVGVYYCMQGAHWPLTFGQGTKVEIK
In the case of B6, the “EC50 (read off the curve)” value in assay [10] and in [13] was around 0.1 nM each time. The Kd was determined as 15 nM in [1], 16.6 nM in [3], 15 nM in assay [11] and 11.9 nM in assay [12]. Besides, the binding result in [14] and in [15] was “no binding (tested: 20 nM)” in each case.

These data come from US20230312724A1 (KADMON, published 2023).
